Reference: US20130230562

Target: ApoHsp (cage protein formed by the fusion protein of Hsp, DEVD motif and histidine polymer, labelled with Cy5.5 and BHQ3)

B1: caspase-8 (NCBI accession no: NP-001073593.1), human, purchased from R&D Systems (protein)
chain: SESQTLDKVYQMKSKPRGYCLIINNHNFAKAREKVPKLHSIRDRNGTHLDAGALTTTFEELHFEIKPHDDCTVEQIYEILKIYQLMDHSNMDCFICCILSHGDKGIIYGTDGQEAPIYELTSQFTGLKCPSLAGKPKVFFIQACQGDNYQKGIPVETDSEEQPYLEMDLSSPQTRYIPDEADFLLGMATVNNCVSYRNPAEGTWYIQSLCQSLRERCPRGDDILTILTEVNYEVSNKDDKKNMGKQMPQPTFTLRKKLVFPSD
  fluorescence signal (Cy5.5 dequenching after cleavage, 96-well plate, 37 C, 2 hours): fluorescence did not occur in reactions with another two capases at all

B2: caspase-9 (NCBI accession no: NP-001220.2), human, purchased from R&D Systems (protein)
chain: MDEADRRLLRRCRLRLVEELQVDQLWDALLSRELFRPHMIEDIQRAGSGSRRDQARQLIIDLETRGSQALPLFISCLEDTGQDMLASFLRTNRQAAKLSKPTLENLTPVVLRPEIRKPEVLRPETPRPVDIGSGGFGDVGALESLRGNADLAYILSMEPCGHCLIINNVNFCRESGLRTRTGSNIDCEKLRRRFSSLHFMVEVKGDLTAKKMVLALLELAQQDHGALDCCVVVILSHGCQASHLQFPGAVYGTDGCPVSVEKIVNIFNGTSCPSLGGKPKLFFIQACGGEQKDHGFEVASTSPEDESPGSNPEPDATPFQEGLRTFDQLDAISSLPTPSDIFVSYSTFPGFVSWRDPKSGSWYVETLDDIFEQWAHSEDLQSLLLRVANAVSVKGIYKQMPGCFNFLRKKLFFKTS
  fluorescence signal (Cy5.5 dequenching after cleavage, 96-well plate, 37 C, 2 hours): fluorescence did not occur in reactions with another two capases at all
